Test results reported in patent US20040052788A1 (IMMUNEX, published 2004).

T1: human CD30 (human, UniProt P28908 19-385, limits assumed)
T1 sequence (looked up): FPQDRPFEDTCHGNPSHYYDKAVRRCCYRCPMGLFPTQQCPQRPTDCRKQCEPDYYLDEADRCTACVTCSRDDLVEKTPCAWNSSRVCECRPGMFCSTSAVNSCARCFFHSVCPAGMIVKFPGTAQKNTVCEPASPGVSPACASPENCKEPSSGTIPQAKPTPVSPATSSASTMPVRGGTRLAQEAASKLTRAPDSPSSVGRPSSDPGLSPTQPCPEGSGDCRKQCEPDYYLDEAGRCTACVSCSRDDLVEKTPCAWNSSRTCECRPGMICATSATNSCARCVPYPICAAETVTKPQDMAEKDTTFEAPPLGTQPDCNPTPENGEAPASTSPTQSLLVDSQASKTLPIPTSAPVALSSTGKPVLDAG

B1: human TRAIL (TNF Related Apoptosis Inducing Ligand), as used in the receptor binding analysis (ligand)
chain: MAMMEVQGGPSLGQTCVLIVIFTVLLQSLCVAVTYVYFTNELKQMQDKYSKSGIACFLKEDDSYWDPNDEESMNSPCWQVKWQLRQLVRKMILRTSEETISTVQEKQQNISPLVRERGPQRVAAHITGTRGRSNTLSSPNSKNEKALGRKINSWESSRSGHSFLSNLHLRNGELVIHEKGFYYIYSQTYFRFQEEIKENTKNDKQMVQYIYKYTSYPDPILLMKSARNSCWSKDAEYGLYSIYQGGIFELKENDRIFVSVTNEHLIDMDHEASFFGAFLVG
notes: also called huTRAIL

How the values were obtained:
[1] = biological target: B1; experiment: slide autoradiography (procedure of Gearing et al.)
Procedure: (§1) TRAIL was tested for ability to bind receptors of the TNF-R family of receptors. The binding analysis was conducted using the slide autoradiography procedure of Gearing et al. (EMBO J. 8:3667, 1989).

human CD30 = biological target: T1, human CD30; experiment: as above
Procedure: as §1

| Binder | binding result [1] | binding result (human CD30) |
| --- | --- | --- |
| human LTβR (receptor, UniProt P36941 31-227, looked up, also called TNFR-RP) QAVPPYASENQTCRDQEKEYYEPQHRICCSRCPPGTYVSAKCSRIRDTVCATCAENSYNEHWNYLTICQLCRPCDPVMGLEEIAPCTSKRKTQCRCQPGMFCAAWALECTHCELLSDCPPGTEAELKDEVGKGNNHCVPCKAGHFQNTSSPSARCQPHTRCENQGLVEAAPGTAQSDTTCKNPLEPLPPEMSGTMLM | no binding |  |
| B1 |  | no binding |
| human TNF-R (p80 form) (receptor, UniProt P20333 23-257, looked up) LPAQVAFTPYAPEPGSTCRLREYYDQTAQMCCSKCSPGQHAKVFCTKTSDTVCDSCEDSTYTQLWNWVPECLSCGSRCSSDQVETQACTREQNRICTCRPGWYCALSKQEGCRLCAPLRKCRPGFGVARPGTETSDVVCKPCAPGTFSNTTSSTDICRPHQICNVVAIPGNASMDAVCTSTSPTRSMAPGAVHLPQPVSTRSQHTQPTPEPSTAPSTSFLLPMGPSPPAEGSTGD | no binding |  |
| human OX40 (receptor, UniProt P43489 29-214, looked up) LHCVGDTYPSNDRCCHECRPGNGMVSRCSRSQNTVCRPCGPGFYNDVVSSKPCKPCTWCNLRSGSERKQLCTATQDTVCRCRAGTQPLDSYKPGVDCAPCPPGHFSPGDNQACKPWTNCTLAGKHTLQPASNSSDAICEDRDPPATQPQETQGPPARPITVQPTEAWPRTSQGPSTRPVEVPGGRA | no binding |  |
| human CD27 (receptor, UniProt P26842 20-191, looked up) ATPAPKSCPERHYWAQGKLCCQMCEPGTFLVKDCDQHRKAAQCDPCIPGVSFSPDHHTRPHCESCRHCNSGLLVRNCTITANAECACRNGWQCRDKECTECDPLPNPSLTARSSQALSPHPQPTHLPYVSEMLEARTAGHMQTLADFRQLPARTLSTHWPPQRSLCSSDFIR | no binding |  |
